In US11001846B2, “Aptamers, nucleic acid molecules, polynucleotides, synthetic antibodies compositions for detecting PRRS viruses and treating PRRS virus infection” (AEROVIRUS TECHNOLOGIES INC., priority 2015, dated 2021):
“Also recorded” adds a separate entry of the source.

Key:
LHVA-93-3 PRRS virus = experiment: In-vivo lung virus titer, LHVA-93-3, comparison with control oligonucleotide and Tilmicosin (Example 4); parameters: species or system swine; settings: LHVA-93-3; FIG. 13b
Procedure: Swine were inoculated intranasally with sub-lethal infectious fluid containing 40TCID50/ml PRRS virus (LHVA-93-3) with or without 2.5 nmole A505 aptamer for different time intervals. Pig body weight was monitored for 2 weeks. Viral titer in the lungs was determined by the CPE titration method (OIE Terrestrial Manual—May 2015, Chapter 2.8.7—Porcine Reproductive and Respiratory Syndrome, section 1.1.3). Other pigs were sacrificed 6 days following viral inoculation and lungs were removed and homogenized in PBS 0.1% BSA (10% w/v). Following homogenization, samples were centrifuged to remove debris and stored at −80° C.
The cells/viruses were incubated for 2-5 days and observe daily for a CPE. At day 2, seed macrophages in new microtitre plates. Fifty (50) μl of the supernatants were transferred from the plates of the first passage to the corresponding wells of the freshly seeded plates (second passage). The wells were incubated for 2-5 days and observed daily for a CPE. The results of the CPE assays were presented as log TCID50.
Tilmicosin (Pulmotil®) was purchased from Eli Lilly (Elanco®), Canada.
Were implemented as described hereinabove. A dose of 15 ug/Kg of A505 was used.
The ability of the A505 aptamer to inhibit PRRSV infection was also compared to that of one of the currently available “anti-PRRSV” drugs, the antibiotic Tilmicosin. To this end, both A505 and Tilmicosin were administered once, together with the virus, using the intra-nasal route. As is shown in Table 2 below, a dose of 60 mg/pig of Tilmicosin (1 mg/kg body weight) reduced virus titer by 0.42 log TCID50, representing a 2.6-fold reduction in virus burden. This is in comparison to a reduction by 1.21 log TCID50 affected by A505 in this particular experiment (over 10 fold reduction in virus burden).

type 2 PRRSV = settings: after MTT screening of 10 candidates
From the text: Using various tetrazolium (MTT) colorimetric assay procedures^[xxxvi], these aptamers have been “screened” to identify the ones having the highest and fastest binding capabilities for detection and therapeutics purposes for both types of PRRSV. It should be pointed out that the aptamer having the quickest binding efficiency but not necessarily the highest binding strength is the most suitable one for the biosensor.

LHVA-3 PRRS virus = experiment: MTT assay, in vitro protection of PAMs or MARC-145 cells from LHVA-3 infection; type: cell-based, PRRSV; settings: 500 pmole; LHVA-3 and NVSL; FIG. 9b
Procedure: PAMs or MARC-145 cells were plated in 96 well plates (7×10^4/well) one day prior to the assay. […] Following infection, cells were incubated in growth medium at 37° C. for 72 hours. MTT assay was performed by adding 4 mg/ml MTT (3-[4,5-Dimethylthiazol-2-yl]-2,5-diphenyltetrazolium bromide dissolved in PBS to the cell cultures and incubation at 37° C. for 3 hours. Plates were then centrifuged at 800×g for 10 min. Supernatants were aspirated and the formazan dye was dissolved in 150 μl/well of isopropyl alcohol, and O.D. values were determined with an ELISA reader at 570 nm.
In Vitro Viral Protection Prior to Viral Infection PAMs or MARC-145 cells were plated on 96 well plates (7×10^4/well) 24 hours prior to the experiment. Each well was washed twice with DPBS prior to treating the cells with various amounts of A505 (12.5 to 2000 pmole) at 37° C. for the indicated time points. […] Following incubation, cells were transferred to growth medium and incubated at 37° C. for 72 hours. Thereafter an MTT assay was implemented as described.
In Vitro Viral Protection Following Viral Infection—PAMs or MARC-145 cells were plated on 96 well plates (7×10^4/well) 24 hours prior to viral infection. Viral infection was effected as described above. Infected cells were gently washed with DPBS for 3 times. Cells were then treated with various amounts of A505 (12.5 to 2000 pmole) for 1 hour at 37° C. Following incubation, cells were transferred to growth medium and incubated at 37° C. for 72 hours. Thereafter an MTT assay was implemented as described.

[1] = test system: M-S-S-GP5 peptidic complex; experiment: ELISA reverse screening: binding to M-S-S-GP5 peptidic complex, type 2; settings: type 2 PRRSV complex
Procedure: ssDNA aptamers were denatured at 80° C. for 10 min and then cooled on ice for 10 min. Aptamers (30 nmole) were mixed with 25 μg of M-S-S-GP5 peptidic complex (further described in Example 6 below) in 500 μl selection buffer (50 mM Tris-HCl; pH 7.4, 5 mM KCl, 100 mM NaCl, 1 mM MgCl2 tRNA, 0.2% BSA) at 37° C. for 30 min. Aptamer-peptide complex was purified by adding the 25 μl Ni-NTA superflow and amplified by PCR using primers directed to the common T3 sequences in the aptamer library, and 3′-primer (i.e. -[…]-3′). SELEX was repeated 3 times, following which amplified nucleotides were transformed into E. coli. PCR conditions for SELEX included 5 min 95° C./1 min 95° C./1 min 55° C./1 min 72° C./10 min 72° C. and 100 pmole of each primer.
Selected ssDNA molecules from each individual clone were biotinylated using the B-T3 which is same sequence with 5′ primer (T3 primer), and Klenow fragment (2 unit/ml). To prepare single stranded biotin conjugated CoocSeq5 aptamer for the reverse screening, T3 Primer was Biotin labelled. A 96-well flat bottom ELISA plate was prepared by coating each well with 100 μl of streptavidin (100 μg/ml) diluted in 0.1 M NaHCO3 following by a 37° C. overnight incubation. Following several washings with PBS, wells were blocked with 200 μl of PBS containing 1% BSA for 2 hours at room temperature and subsequent washing three times with PBS-T (10 mM PBS containing 0.05% (v/v) Tween-20). […]
High binding capacity ELISA plates (Immunoplate, Nunc) were coated with 100 μl allantoic fluid containing 500 TCID50 of various PRRS virus strains diluted in phosphate buffered saline (PBS) by incubating at 4° C. overnight. […] Following this incubation period, plates were washed five times in PBS-T and bound antibodies were detected using horseradish peroxidase labelled goat anti-mouse IgG conjugates (HRP). […] Reaction was terminated with 50 μl of 2M H2SO4, plates were read with a multichannel spectrophotometer at 570 nm.

[2] = test system: intact PRRS virus (LHVA-93-3); experiment: ELISA binding to intact PRRS virus; parameters: species or system PRRSV; settings: vs control ssDNA or between aptamers, FIG. 8a

B1: A508: ssDNA aptamer binding type 2 PRRSV M-S-S-GP5 complex (nucleic acid)
DNA: GGGCGACCCTGAAGAGACTGGTGAGTTAATGTTTTTTCTTAGCCTTGTATCGAAACGGTGAAAGCCGTAGGTTGCCC
modifications: DNA, backbone and methylation of C not given here
With B1 the “change in lung virus titer” value (LHVA-93-3 PRRS virus) was “less effective than A505 was still capable of reducing the lung virus titer”, the “binding capabilities from biosensing and therapeutic perspectives” value (type 2 PRRSV) was “highest binding capabilities” and the “in-vitro infectivity of the viruses / cell mortality” value (LHVA-3 PRRS virus) was “capable of reducing the in-vitro infectivity of the viruses”. For the same molecule, the “binding to the M-S-S-GP5 complex/heterodimer” value [1] was “highly significant differences from the control ssDNA; also recorded: binding capacity to the M-S-S-GP5 complex; also recorded: found to bind the M-S-S-GP5 heterodimer” and the “binding level to the intact virus” value [2] was “significant binding”.
